We go through 5 molecules from article PMC7367873, “Dissecting the sequence determinants for dephosphorylation by the catalytic subunits of phosphatases PP1 and PP2A” (Nature Communications, 2020).

The subject of assay [1] is GFP-14-3-3β and its binding proteins. The assay can be described thus: GFP-14-3-3β co-IP with LC-MS/MS label-free quantification, untreated versus PP1c-treated. Details: species or system human. Conditions: label-free quantification. Here is the method: (§1) HeLa Kyoto cells expressing transiently transfected pEGFP(C1)-14-3-3β or pEGFP(C1) control plasmid, were incubated with 20 nM Calyculin A (# 9902 S, Cell Signaling Technology) for 12 min. Cells were washed twice on ice with cold PBS and after addition of 500 µL lysis buffer (100 mM NaCl, 10 mM Tris, 0.1% IGEPAL, 1 mM EDTA, 1 mM EGTA, 20 nM Calyculin A, 1x cOmplete Mini protease inhibitor cocktail (Sigma), 1 mM DTT, 1 mM MnCl2) cells were scraped from plates, lysed by 10 pushes through an injection needle (21 G, BD) and the insoluble fraction was pelleted by centrifugation (10 min, 10^4 rcf, 4 °C). Supernatants were then subjected to incubation with 1 µM recombinant phosphatase or buffer for 1 h at 30 °C. Next, we subjected samples to immunoprecipitation using α-GFP nanobodies covalently coupled to agarose beads (2 h, 4 °C, obtained from the EMBL PEPcore Core Facility). Beads were then washed three times with lysis buffer and samples were eluted in 1x LDS sample buffer (Thermo Fisher Scientific) by heating to 70 °C for 10 min.
(§2) The samples were then reduced with 25 mM dithiothreitol (10 min at 70 °C) and alkylated with 55 mM chloroacetamide (room temperature, 30 min, in the dark). Proteins were run on a precast 4–12% NuPAGE gel (ThermoFisher Scientific) for about 1 cm to concentrate the sample prior to in-gel tryptic digestion, which was performed according to the standard procedures. The peptides obtained were dried to completeness and resuspended in 12 µL of buffer A (0.1% FA), and 5 µL of sample were injected per MS measurement. The experiment was carried out in three independent replicates.
(§3) The samples were analyzed by LC-MS/MS on a Dionex Ultimate 3000 nano-HPLC coupled online to a Fusion Lumos Tribrid mass spectrometer (Thermo Fisher Scientific). Peptides were delivered to a trap column (75 µm × 2 cm, packed in-house with 5 µm C18 resin; Reprosil PUR AQ, Dr. Maisch) and washed using 0.1% FA at a flow rate of 5 µL/min for 10 min. Subsequently, peptides were transferred to an analytical column (75 µm × 45 cm, packed in-house with 3 µm C18 resin; Reprosil Gold) applying a flow rate of 300 nL/min and separated using a 60 min linear gradient from 4% to 32% LC solvent B (0.1% FA, 5% DMSO in ACN) in LC solvent A (0.1% FA in 5% DMSO). The eluate from the analytical column was sprayed via a stainless steel emitter (Thermo Fisher Scientific) at a source voltage of 2.1 kV into the mass spectrometer. The transfer capillary was heated to 275 °C. The Fusion Lumos was operated in positive ionization mode and data-dependent acquisition (DDA), automatically switching between MS1 and MS2 spectrum acquisition. Full scan MS1 spectra were recorded in the Orbitrap from 360 to 1300 m/z at a resolution of 60k (automatic gain control (AGC) target value of 4e5 charges, maximum injection time (maxIT) of 50 ms). Up to 20 peptide precursors were isolated (isolation window, 1.7 m/z; maximum injection time, 25 ms; and AGC value, 1e5), fragmented by high-energy collision-induced dissociation (HCD) using 30% normalized collision energy (NCE), and analyzed at a resolution of 15k in the Orbitrap. Precursor ions that were singly charged, unassigned, or with charge states >6+ were excluded. The dynamic exclusion duration of fragmented precursor ions was 20 s.
(§4) Peptide and protein identification and LFQ were performed using MaxQuant software (version 1.6.1.0)[64] by searching the data against all canonical protein sequences as annotated in the Swissprot reference database (human proteins only, 20193 entries, downloaded 22 March 2016, internally annotated with PFAM domains) using the embedded search engine Andromeda[65]. The MaxQuant search was performed using two variable modifications; oxidation of methionine and N-terminal protein acetylation. Carbamidomethylation on cysteines was specified as a fixed modification. Trypsin (Trypsin/P) was specified as the proteolytic enzyme with up to two allowed missed cleavage sites.

Assay [2] concerns GFP-14-3-3β. The experiment in a line: GFP-14-3-3β co-IP with LC-MS/MS, untreated GFP-14-3-3β versus GFP control (14-3-3 interactome). Conditions: label-free quantification. The assay is classed as binding, human. The method, then:
as §1, §2, §3, §4

B1: GNL3 (protein, UniProt Q9BVP2 1-549, looked up)
Guanine nucleotide-binding …: MKRPKLKKASKRMTCHKRYKIQKKVREHHRKLRKEAKKRGHKKPRKDPGVPNSAPFKEALLREAELRKQRLEELKQQQKLDRQKELEKKRKLETNPDIKPSNVEPMEKEFGLCKTENKAKSGKQNSKKLYCQELKKVIEASDVVLEVLDARDPLGCRCPQVEEAIVQSGQKKLVLILNKSDLVPKENLESWLNYLKKELPTVVFRASTKPKDKGKITKRVKAKKNAAPFRSEVCFGKEGLWKLLGGFQETCSKAIRVGVIGFPNVGKSSIINSLKQEQMCNVGVSMGLTRSMQVVPLDKQITIIDSPSFIVSPLNSSSALALRSPASIEVVKPMEAASAILSQADARQVVLKYTVPGYRNSLEFFTVLAQRRGMHQKGGIPNVEGAAKLLWSEWTGASLAYYCHPPTSWTPPPYFNESIVVDMKSGFNLEELEKNNAQSIRAIKGPHLANSILFQSSGLTNGIIEEKDIHEELPKRKERKQEEREDDKDSDQETVDEEVDENSSGMFAAEETGEALSEETTAGEQSTRSFILDKIIEEDDAYDFSTDYV
For B1, in assay [1] (PP1 vs untreated), the “Difference (log2), PP1 vs untreated” value is listed as 1.1838 log2. For the same molecule, the “Difference (log2), untreated vs GFP” value in assay [2] (untreated vs GFP) worked out at 2.229 log2.

B2: CD55 (protein, UniProt P08174 35-353, looked up)
Complement decay-accelerating …: DCGLPPDVPNAQPALEGRTSFPEDTVITYKCEESFVKIPGEKDSVICLKGSQWSDIEEFCNRSCEVPTRLNSASLKQPYITQNYFPVGTVVEYECRPGYRREPSLSPKLTCLQNLKWSTAVEFCKKKSCPNPGEIRNGQIDVPGGILFGATISFSCNTGYKLFGSTSSFCLISGSSVQWSDPLPECREIYCPAPPQIDNGIIQGERDHYGYRQSVTYACNKGFTMIGEHSIYCTVNNDEGEWSGPPPECRGKSLTSKVPPTVQKPTTVNVPTTEVSPTSQKTTTKTTTPNAQATRSTPVSRTTKHFHETTPNKGSGTTS
For the molecule B2, in assay [1] (PP1 vs untreated), the “Difference (log2), PP1 vs untreated” value stood at 1.129 log2. For the same molecule, in assay [2] (untreated vs GFP), the “Difference (log2), untreated vs GFP” value is on record as -1.764 log2.

B3: ATP2A2 (protein, UniProt P16615 1-1042, looked up)
Sarcoplasmic/endoplasmic …: MENAHTKTVEEVLGHFGVNESTGLSLEQVKKLKERWGSNELPAEEGKTLLELVIEQFEDLLVRILLLAACISFVLAWFEEGEETITAFVEPFVILLILVANAIVGVWQERNAENAIEALKEYEPEMGKVYRQDRKSVQRIKAKDIVPGDIVEIAVGDKVPADIRLTSIKSTTLRVDQSILTGESVSVIKHTDPVPDPRAVNQDKKNMLFSGTNIAAGKAMGVVVATGVNTEIGKIRDEMVATEQERTPLQQKLDEFGEQLSKVISLICIAVWIINIGHFNDPVHGGSWIRGAIYYFKIAVALAVAAIPEGLPAVITTCLALGTRRMAKKNAIVRSLPSVETLGCTSVICSDKTGTLTTNQMSVCRMFILDRVEGDTCSLNEFTITGSTYAPIGEVHKDDKPVNCHQYDGLVELATICALCNDSALDYNEAKGVYEKVGEATETALTCLVEKMNVFDTELKGLSKIERANACNSVIKQLMKKEFTLEFSRDRKSMSVYCTPNKPSRTSMSKMFVKGAPEGVIDRCTHIRVGSTKVPMTSGVKQKIMSVIREWGSGSDTLRCLALATHDNPLRREEMHLEDSANFIKYETNLTFVGCVGMLDPPRIEVASSVKLCRQAGIRVIMITGDNKGTAVAICRRIGIFGQDEDVTSKAFTGREFDELNPSAQRDACLNARCFARVEPSHKSKIVEFLQSFDEITAMTGDGVNDAPALKKAEIGIAMGSGTAVAKTASEMVLADDNFSTIVAAVEEGRAIYNNMKQFIRYLISSNVGEVVCIFLTAALGFPEALIPVQLLWVNLVTDGLPATALGFNPPDLDIMNKPPRNPKEPLISGWLFFRYLAIGCYVGAATVGAAAWWFIAADGGPRVSFYQLSHFLQCKEDNPDFEGVDCAIFESPYPMTMALSVLVTIEMCNALNSLSENQSLLRMPPWENIWLVGSICLSMSLHFLILYVEPLPLIFQITPLNVTQWLMVLKISLPVILMDETLKFVARNYLEPGKECVQPATKSCSFSACTDGISWPFVLLIMPLVIWVYSTDTNFSDMFWS
As for B3, in assay [1] (PP1 vs untreated), the “Difference (log2), PP1 vs untreated” value amounted to 1.1435 log2. Further, the “Difference (log2), untreated vs GFP” value in assay [2] (untreated vs GFP) is given as -0.4794 log2.

B4: PKP3 (protein, UniProt Q9Y446 1-797, looked up)
Plakophilin-3: MQDGNFLLSALQPEAGVCSLALPSDLQLDRRGAEGPEAERLRAARVQEQVRARLLQLGQQPRHNGAAEPEPEAETARGTSRGQYHTLQAGFSSRSQGLSGDKTSGFRPIAKPAYSPASWSSRSAVDLSCSRRLSSAHNGGSAFGAAGYGGAQPTPPMPTRPVSFHERGGVGSRADYDTLSLRSLRLGPGGLDDRYSLVSEQLEPAATSTYRAFAYERQASSSSSRAGGLDWPEATEVSPSRTIRAPAVRTLQRFQSSHRSRGVGGAVPGAVLEPVARAPSVRSLSLSLADSGHLPDVHGFNSYGSHRTLQRLSSGFDDIDLPSAVKYLMASDPNLQVLGAAYIQHKCYSDAAAKKQARSLQAVPRLVKLFNHANQEVQRHATGAMRNLIYDNADNKLALVEENGIFELLRTLREQDDELRKNVTGILWNLSSSDHLKDRLARDTLEQLTDLVLSPLSGAGGPPLIQQNASEAEIFYNATGFLRNLSSASQATRQKMRECHGLVDALVTSINHALDAGKCEDKSVENAVCVLRNLSYRLYDEMPPSALQRLEGRGRRDLAGAPPGEVVGCFTPQSRRLRELPLAADALTFAEVSKDPKGLEWLWSPQIVGLYNRLLQRCELNRHTTEAAAGALQNITAGDRRWAGVLSRLALEQERILNPLLDRVRTADHHQLRSLTGLIRNLSRNARNKDEMSTKVVSHLIEKLPGSVGEKSPPAEVLVNIIAVLNNLVVASPIAARDLLYFDGLRKLIFIKKKRDSPDSEKSSRAASSLLANLWQYNKLHRDFRAKGYRKEDFLGP
Turning to B4, in assay [1] (log2 difference, pairwise comparison PP1 vs untreated, 3 replicates each), the “Difference (log2), PP1 vs untreated” value is given as 2.782. For the same molecule, the “Difference (log2), untreated vs GFP” value in assay [2] (log2 difference, pairwise comparison untreated vs GFP, 3 replicates each) is -1.082.

B5: CEP131 (protein, UniProt Q9UPN4 1-1083, looked up)
Centrosomal protein of 131 kDa: MKGTRAIGSVPERSPAGVDLSLTGLPPPVSRRPGSAATTKPIVRSVSVVTGSEQKRKVLEATGPGGSQAINNLRRSNSTTQVSQPRSGSPRPTEPTDFLMLFEGSPSGKKRPASLSTAPSEKGATWNVLDDQPRGFTLPSNARSSSALDSPAGPRRKECTVALAPNFTANNRSNKGAVGNCVTTMVHNRYTPSERAPPLKSSNQTAPSLNNIIKAATCEGSESSGFGKLPKNVSSATHSARNNTGGSTGLPRRKEVTEEEAERFIHQVNQATVTIQRWYRHQVQRRGAGAARLEHLLQAKREEQRQRSGEGTLLDLHQQKEAARRKAREEKARQARRAAIQELQQKRALRAQKASTAERGPPENPRETRVPGMRQPAQELSPTPGGTAHQALKANNTGGGLPAAGPGDRCLPTSDSSPEPQQPPEDRTQDVLAQDAAGDNLEMMAPSRGSAKSRGPLEELLHTLQLLEKEPDVLPRPRTHHRGRYAWASEVTTEDDASSLTADNLEKFGKLSAFPEPPEDGTLLSEAKLQSIMSFLDEMEKSGQDQLDSQQEGWVPEAGPGPLELGSEVSTSVMRLKLEVEEKKQAMLLLQRALAQQRDLTARRVKETEKALSRQLQRQREHYEATIQRHLAFIDQLIEDKKVLSEKCEAVVAELKQEDQRCTERVAQAQAQHELEIKKLKELMSATEKARREKWISEKTKKIKEVTVRGLEPEIQKLIARHKQEVRRLKSLHEAELLQSDERASQRCLRQAEELREQLEREKEALGQQERERARQRFQQHLEQEQWALQQQRQRLYSEVAEERERLGQQAARQRAELEELRQQLEESSSALTRALRAEFEKGREEQERRHQMELNTLKQQLELERQAWEAGRTRKEEAWLLNREQELREEIRKGRDKEIELVIHRLEADMALAKEESEKAAESRIKRLRDKYEAELSELEQSERKLQERCSELKGQLGEAEGENLRLQGLVRQKERALEDAQAVNEQLSSERSNLAQVIRQEFEDRLAASEEETRQAKAELATLQARQQLELEEVHRRVKTALARKEEAVSSLRTQHEAAVKRADHLEELLEQHRRPTPSTK
Regarding B5, in assay [1] (PP1 vs untreated), the “Difference (log2), PP1 vs untreated” value amounted to 1.183 log2. Further, in assay [2] (untreated vs GFP), the “Difference (log2), untreated vs GFP” value was determined as 0.2298 log2.
